From patent publication US20040175804A1, “Process for preparing dideoxyinosine using adenosine deaminase enzyme” (priority 2003, published 2004)

What was measured:
[1] = ADA activity assay (1 U = 1 μmol of ddA deaminated/min at 37° C.); assay type: biochemical; settings: 1 unit = 1 μmol of ddA deaminated/min at 37° C.; on IPS-400 support
Procedure: The enzyme so derived should be assayed for activity. As used herein, a unit (U) of enzymatic activity is that amount of enzyme which will deaminate 1 μmol of ddA per minute at 37° C. Desirably, the final enzyme titer is from about 650-750 U/ml. The assay may be performed by adding enzyme to a 2.4% solution of ddA at 37° C. The reaction is allowed to proceed for 15 min while gently stirring. Tetrahydrofuran is added to stop the reaction. A sample is taken and run on HPLC to determine the amount of ddI formed.
The immobilized enzyme assays show an enzymatic activity of ˜100 U/g. (1 unit=1 μmol of ddA deaminated/min at 37° C.).

[2] = Conversion of a 52-60 g/L solution of ddA in water to ddI by adenosine deaminase; assay type: biochemical; settings: for Conversion of ddA to ddI: 40 U/g ddA, 52-60 g/L ddA in water
Procedure: 100.0 g ddA is added to 1900 ml of water at 30° C. (mother liquor from previous runs can also be used). After the ddA has been added (complete dissolution is not necessary), 4000 U of immobilized rec human adenosine deaminase is added. […] The reaction is complete (approximately 5-8 hours) when the level of residual ddA is less than or equal to 1% of the original amount of ddA added. The enzyme solids are removed by filtration (20-30 μm media) and the enzyme cake is washed with 100 ml water. The used enzyme is held as a wet cake at 0-5° C. (for up to 72 hours) and can be recycled to another batch.
Microbial ADA from recombinant E. coli was partially purified and isolated as an ammonium sulfate suspension. E. coli fermentation broth (42 U ADA/mL, 2 L) was centrifuged and the cell pellet was collected and washed with 1 L 100 mM phosphate buffer pH 7.5. The cells were again centrifuged and resuspended in 2 L of the above buffer plus 20% glycerol. The cells were passed once through a microfluidizer. Cell debris was removed by centrifugation and the resulting supernatant was concentrated by ultrafiltration through a 30,000 MWCO cassette. The enzyme was concentrated to a final titer of 390 U/ml. Ammonium sulfate was added to a 50% saturation, the resulting precipitate was collected by centrifugation and re-suspended in 100 ml deionized water. The final titer of the slurry was 740 U/ml; the protein content of the slurry was ˜75 mg/ml.

B1: Recombinant human immobilized ADA: Human adenosine deaminase (SEQ ID NO: 1) expressed in E. coli, immobilized on glutaraldehyde-activated IPS-400 support (protein, listed as Homo sapiens)
chain: MAQTPAFDKPKVELHVHLDGSIKPETILYYGRRRGIALPANTAEGLLNVIGMDKPLTLPDFLAKFDYYMPAIAGCREAIKRIAYEFVEMKAKEGVVYVEVRYSPHLLANSKVEPIPWNQAEGDLTPDEVVALVGQGLQEGERDFGVKARSILCCMRHQPNWSPKVVELCKKYQQQTVVAIDLAGDETIPGSSLLPGHVQAYQEAVKSGIHRTVHAGEVGSAEVVKEAVDILKTERLGHGYHTLEDQALYNRLRQENMHFEICPWSSYLTGAWKPDTEHAVIRLKNDQANYSLNTDDPLIFKSTLDTDYQMTKRDMGFTEEEFKRLNINAAKSSFLPEDEKRELLDLLYKAYGMPPSASAGQNL
modifications: immobilized on glutaraldehyde-activated IPS-400 support; (1)..(363) gi 14043373
[1]
  Enzymatic activity of immobilized enzyme: ~100 U/g
[2]; 30 °C, 4.5 hours
  Conversion of ddA to ddI: 100%
[2]; 40 °C, 1.5 hours
  Conversion of ddA to ddI: 100%
[2]; compared with microbial enzymes
  Stability of the enzyme in the ddA to ddI reaction: significantly more stable than microbial enzymes
